Laboratory results: PMC10939272, “Structural insights into the octamerization of glycerol dehydrogenase” (PLOS ONE, 2024)

Target: the molecule itself
Test: crystal structure; hanging-drop vapor diffusion, 20°C, pH 4.2, with ZnCl2 and NAD+, soaked in glycerol; space group I422, 2.0 Å; octamer by non-crystallographic 2-fold and crystallographic 4-fold symmetry

B1: Escherichia coli glycerol dehydrogenase (GDH), full-length (1-367) (enzyme, E. coli K12 MG1655, UniProt P0A9S5 1-367, looked up)
chain: MDRIIQSPGKYIQGADVINRLGEYLKPLAERWLVVGDKFVLGFAQSTVEKSFKDAGLVVEIAPFGGECSQNEIDRLRGIAETAQCGAILGIGGGKTLDTAKALAHFMGVPVAIAPTIASTDAPCSALSVIYTDEGEFDRYLLLPNNPNMVIVDTKIVAGAPARLLAAGIGDALATWFEARACSRSGATTMAGGKCTQAALALAELCYNTLLEEGEKAMLAAEQHVVTPALERVIEANTYLSGVGFESGGLAAAHAVHNGLTAIPDAHHYYHGEKVAFGTLTQLVLENAPVEEIETVAALSHAVGLPITLAQLDIKEDVPAKMRIVAEAACAEGETIHNMPGGATPDQVYAALLVADQYGQRFLQEWE
notes: glycerol dehydrogenase (GDH; EC 1.1.1.6) of E. coli K12 MG1655, full length, residues 1-367; Homo-octamer; Two protomers (Mol-A, Mol-B) lie in the asymmetric unit and the octamer is formed by crystallographic 4-fold symmetry; Crystallised with Zn2+ and NAD+ and soaked in glycerol; also called E. coli GDH; GDH^NAD∙Gly; source: E. coli BL21 (DE3), purified (Ni-IDA, size-exclusion chromatography)
  stoichiometry N: 8
